Measured values reported in patent publication US20200347127A1 (CRESCENDO BIOLOGICS, published 2020).
“And” between values parts separate entries of the source, which are not always exact repeats. Equal values may be shown once.

T1: IL-17C (UniProt Q9P0M4 19-197, limits assumed)
T1 sequence (looked up): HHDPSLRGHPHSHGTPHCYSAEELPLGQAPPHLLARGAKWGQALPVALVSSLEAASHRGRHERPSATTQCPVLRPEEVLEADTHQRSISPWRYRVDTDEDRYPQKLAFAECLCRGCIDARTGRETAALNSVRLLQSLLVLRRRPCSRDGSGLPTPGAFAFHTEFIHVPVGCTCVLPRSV

T2: IL-17F (UniProt Q96PD4 31-163, limits assumed)
T2 sequence (looked up): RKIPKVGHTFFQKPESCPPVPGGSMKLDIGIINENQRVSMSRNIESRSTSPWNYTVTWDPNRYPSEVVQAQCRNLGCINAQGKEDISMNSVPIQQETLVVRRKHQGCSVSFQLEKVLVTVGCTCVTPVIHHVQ

T3: murine IL-17A (murine, UniProt Q62386 26-158, limits assumed)
T3 sequence (looked up): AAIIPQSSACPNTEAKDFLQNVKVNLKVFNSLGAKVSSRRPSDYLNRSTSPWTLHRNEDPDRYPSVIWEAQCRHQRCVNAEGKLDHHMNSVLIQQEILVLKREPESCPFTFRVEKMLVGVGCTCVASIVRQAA


How the values were obtained:
[1] = biological target: T4, recombinant human IL-17A (human, UniProt Q16552 24-155); assay: SPR (BIAcore T200), IL-17A coupled to CM5 chip, single-cycle kinetics;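 note: VH domain analytes, kinetic constants obtained by fitting blank-corrected sensorgrams to a 1:1 binding model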
T4 construct: Bought recombinant protein (Peprotech AF-200-17); also called Peprotech AF-200-17

[2] = biological target: T5, recombinant IL-17RA-Fc (UniProt Q96F46 33-320); assay: specificity ELISA on coated antigen, VH concentration not given
T5 construct: Bought reagent; also called R & D systems cat #177-IR-100; receptor; not shown: Fc part of the bought fusion, not described

[3] = biological target: T1, IL-17C; assay: as above
[4] = biological target: T2, IL-17F; assay: as above
[5] = biological target: T3, murine IL-17A; assay: as above
[6] = biological target: T4, recombinant human IL-17A; assay: BIAcore single-cycle kinetics on immobilised IL-17A, 1:1 binding fit
[7] = biological target: T4, recombinant human IL-17A; assay: SPR (BIAcore)
[8] = biological target: T4, recombinant human IL-17A; assay: cell-based or functional assay
[9] = biological target: T4, recombinant human IL-17A; assay: BIAcore single-cycle kinetics on immobilised IL-17A, 1:1 binding fit; remark: listed apart in the source
[10] = biological target: T4, recombinant human IL-17A; assay: VH screening as in examples 7 and 8
[11] = biological target: T4, recombinant human IL-17A; assay: competition ELISA, IL-17A binding to coated IL-17RA-Fc; FIG. 9A

T4 sequence (Q16552 24-155): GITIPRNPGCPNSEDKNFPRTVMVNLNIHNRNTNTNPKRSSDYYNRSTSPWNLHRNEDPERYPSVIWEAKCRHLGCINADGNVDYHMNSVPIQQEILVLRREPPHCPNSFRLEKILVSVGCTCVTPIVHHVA

Row | Binder | Kd [1] | koff [1] | kon [1] | binding result [2] | binding result [3] | binding result [4] | binding result [5] | Cell assay IC50 (nM), IL-17A-induced IL6 release from HT1080 [8] [nM] | also measured
1 | VH 1.3.1 (clone 1.3 expressed from phagemid vector: with linker residues and His tag) (VHH, Human single VH domain; also called Clone 1.3 prep 1; Clone 1.3 prep 2) VHH: EVQLVESGGGLVQPGGSLRLSCAASGFTFSSYSMYWVRQAPGKGLEWVAEIKQDGSVQYYVDSVKGRFTISRDNAKNSLYLQMNSLRAEDTAVYYCAKGEILPLYFDYWGQGTLVTVSS | 0.627 nM and 0.23 nM | 0.000501 s⁻¹ and 0.000222 s⁻¹ | 799000 M⁻¹ s⁻¹ and 964000 M⁻¹ s⁻¹ | no binding | no binding | no binding | binds | – | –
2 | VH 1.3.3 (clone 1.3 with C terminal extension) (VHH, Human single VH domain) VHH: EVQLVESGGGLVQPGGSLRLSCAASGFTFSSYSMYWVRQAPGKGLEWVAEIKQDGSVQYYVDSVKGRFTISRDNAKNSLYLQMNSLRAEDTAVYYCAKGEILPLYFDYWGQGTLVTVSS | – | – | – | – | – | – | – | – | Kd [6]: 0.68 nM; kon [6]: 750000 M⁻¹ s⁻¹
3 | VH 1.3.2 (clone 1.3 with C terminal extension and His tag) (VHH, Human single VH domain) VHH: EVQLVESGGGLVQPGGSLRLSCAASGFTFSSYSMYWVRQAPGKGLEWVAEIKQDGSVQYYVDSVKGRFTISRDNAKNSLYLQMNSLRAEDTAVYYCAKGEILPLYFDYWGQGTLVTVSS | – | – | – | – | – | – | – | – | Kd [7]: 0.63 nM; koff [6]: 0.000501 s⁻¹; kon [6]: 799000 M⁻¹ s⁻¹
4 | Clone 1.15 (VHH, Human single VH domain) VHH: EVQLVESGGGLVQPGGSLRLSCAASGFTFSSYSMYWVRQAPGKGLEWVAEIRQDGSEQYYVDSVKGRFTISRDNAKNSLYLQMNSLRAEDTAVYYCAKGEILPLYFDYWGQGTLVTVSS | 0.232 nM | 0.000242 s⁻¹ | 1.04e+06 M⁻¹ s⁻¹ | no binding | no binding | no binding | binds | 2.5 | –
5 | VH 1.2.2 (+HIS) (VHH, also called 1.2.2 (clone 1.2 with C terminal extension and His tag)) VHH: EVQLVESGGGLVQPGGSLRLSCAASGFTFSSYSMYWVRQAPGKGLEWVAEIKQDGSVQYYVSDVKGRFTISRDNAKNSLYLQMNSLRAEDTAVYYCAKGEILPLYFDYWGQGTLVTVSS | – | – | – | – | – | – | – | – | Kd [9]: 0.55 nM; koff [9]: 0.000485 s⁻¹; kon [9]: 874000 M⁻¹ s⁻¹
6 | VH 1.16.1 (clone 1.16 expressed from phagemid vector: with linker residues and His tag) (VHH, Human single VH domain) VHH: EVQLVESGGGLVQPGGSLRLSCAASGFTFSSYSMYWVRQAPGKGLEWVAEIKQDGSEQYYVDSVKGRFTISRDNAKNSLYLQMNGLRAEDTAVYYCAKGEILPLYFDYWGQGTLVTVSS | 0.216 nM | 0.000213 s⁻¹ | 986000 M⁻¹ s⁻¹ | no binding | no binding | no binding | – | 1.4 | –
7 | VH 1.7.1 (clone 1.7 expressed from phagemid vector: with linker residues and His tag) (VHH, Human single VH domain) VHH: QVQLVESGGGLVQPGGSLRLSCAASGFTFSSYGMYWVRQAPGKGLEWVAKIEQDGSEEYYVDSVKGRFTISRDNAKKSLYLQMNSLRAEDTAVYYCAKGEILPLYFDYWGQGTLVTVSS | 0.609 nM | 0.000466 s⁻¹ | 765000 M⁻¹ s⁻¹ | – | – | – | – | 2 | fold improved affinity over clone 1.1 [10]: ≤ 10 fold; IC50 [11]: 7 nM
8 | VH 1.20.1 (clone 1.20 expressed from phagemid vector: with linker residues and His tag) (VHH, Human single VH domain) VHH: EVQLVESGGGLVQPGGSLRLSCAASGFTFSSYGMYWVRQAPGKGLEWVAKIEQDGSEEYYADSVKGRFTISRDNAKKSLYLQMNSLRAEDTAVYYCAKGEILPLYFDYWGQGTLVTVSS | 0.244 nM | 0.000208 s⁻¹ | 851000 M⁻¹ s⁻¹ | no binding | no binding | no binding | binds | 2.03 | –
